According to patent US20250051454A1 (DUKE UNIVERSITY, published 2025):

Legend:
[1] = biological target: T1, soluble HLA-E-VL9 complex (HLA-E*01:03 heavy chain, beta2-microglobulin, VL9 peptide …) (human)
[2] = biological target: T1, soluble HLA-E-VL9 complex (HLA-E*01:03 …); test: SPR, antibody (human IgG1) on CM5 chip, soluble HLA-E-VL9 flowed over; CA123 on a human IgG1 backbone
[3] = biological target: T2, HLA-E-RL9HIV single chain trimer on transfected 293T cells (human, UniProt P61769 21-119; P13747 22-358); test: flow cytometry, SCT-transfected 293T cells, MFI bar chart [E]
T2 construct: also called control HLA-E-peptide complex

[4] = biological target: T3, HLA-E-RL9SIV single chain trimer on transfected 293T cells (human, UniProt P61769 21-119; P13747 22-358); test: as above
T3 construct: also called control HLA-E-peptide complex

[5] = biological target: T4, soluble HLA-E-RL9SIV complex (Homo sapiens); test: sandwich ELISA: plate coated with the antibody in serial dilution, C-trap-stabilized HLA-E-RL9SIV added, detection with HRP anti-human β2M [panel C]
T4 construct: C-trap-stabilized in the ELISA, biotinylated in the SPR; control antigen; also called C-trap-stabilized HLA-E-RL9SIV

[6] = biological target: T3, HLA-E-RL9SIV single chain trimer on …; test: flow cytometry on SCT-transfected 293T cells
[7] = biological target: T5, soluble HLA-E-RL9HIV complex (Homo sapiens); test: sandwich ELISA: plate coated with the antibody in serial dilution, C-trap-stabilized HLA-E-RL9HIV added, detection with HRP anti-human β2M [panel C]
T5 construct: C-trap-stabilized in the ELISA, biotinylated in the SPR; control antigen; also called C-trap-stabilized HLA-E-RL9HIV

[8] = biological target: HLA-E on K562-E cells loaded with microbiome-derived peptide […] (Escherichia coli MS 175-1) (human, UniProt P13747 22-358; P61769 21-119); test: flow cytometry on peptide-loaded K562-E cells, antibody 10 µg/ml
[9] = biological target: HLA-E on K562-E cells loaded with microbiome-derived peptide […] (Stenotrophomonas sp.) (human, UniProt P13747 22-358; P61769 21-119); test: as above
[10] = biological target: HLA-E on K562-E cells loaded with microbiome-derived peptide […] (Pseudomonas formosensis) (human, UniProt P13747 22-358; P61769 21-119); test: as above
[11] = biological target: T1, soluble HLA-E-VL9 complex (HLA-E*01:03 …); test: SPR, antibody on CM5 chip, soluble HLA-E-VL9 flowed over, 1:1 model; IgM 3H4
[12] = biological target: T6, scleroderma 70 (Scl-70) (UniProt P11387 2-765); test: AtheNA autoantigen assay [panel H]
T6 sequence (looked up): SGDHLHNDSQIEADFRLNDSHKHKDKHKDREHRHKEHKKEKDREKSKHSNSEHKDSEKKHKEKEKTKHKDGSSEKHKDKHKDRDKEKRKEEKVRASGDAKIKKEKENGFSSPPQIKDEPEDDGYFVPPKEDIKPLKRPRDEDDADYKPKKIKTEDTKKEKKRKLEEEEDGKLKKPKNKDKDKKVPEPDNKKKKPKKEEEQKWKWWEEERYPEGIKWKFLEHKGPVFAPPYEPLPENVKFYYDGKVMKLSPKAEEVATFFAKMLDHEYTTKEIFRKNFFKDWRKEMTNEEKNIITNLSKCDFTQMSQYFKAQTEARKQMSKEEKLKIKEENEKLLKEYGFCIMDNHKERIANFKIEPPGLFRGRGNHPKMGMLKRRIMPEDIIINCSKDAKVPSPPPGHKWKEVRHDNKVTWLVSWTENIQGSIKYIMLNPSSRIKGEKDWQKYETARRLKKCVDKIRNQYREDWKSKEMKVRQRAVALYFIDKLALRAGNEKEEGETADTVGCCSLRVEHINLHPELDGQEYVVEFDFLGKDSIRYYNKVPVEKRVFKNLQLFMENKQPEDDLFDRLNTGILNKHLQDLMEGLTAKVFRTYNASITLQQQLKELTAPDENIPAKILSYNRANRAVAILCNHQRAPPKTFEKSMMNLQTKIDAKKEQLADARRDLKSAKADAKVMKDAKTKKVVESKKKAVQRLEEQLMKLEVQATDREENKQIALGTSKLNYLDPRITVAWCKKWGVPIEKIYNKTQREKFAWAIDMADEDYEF

[13] = biological target: T7, centromere B (Cent B) (UniProt P07199 1-599); test: AtheNA autoantigen assay [panel H]
T7 sequence (looked up): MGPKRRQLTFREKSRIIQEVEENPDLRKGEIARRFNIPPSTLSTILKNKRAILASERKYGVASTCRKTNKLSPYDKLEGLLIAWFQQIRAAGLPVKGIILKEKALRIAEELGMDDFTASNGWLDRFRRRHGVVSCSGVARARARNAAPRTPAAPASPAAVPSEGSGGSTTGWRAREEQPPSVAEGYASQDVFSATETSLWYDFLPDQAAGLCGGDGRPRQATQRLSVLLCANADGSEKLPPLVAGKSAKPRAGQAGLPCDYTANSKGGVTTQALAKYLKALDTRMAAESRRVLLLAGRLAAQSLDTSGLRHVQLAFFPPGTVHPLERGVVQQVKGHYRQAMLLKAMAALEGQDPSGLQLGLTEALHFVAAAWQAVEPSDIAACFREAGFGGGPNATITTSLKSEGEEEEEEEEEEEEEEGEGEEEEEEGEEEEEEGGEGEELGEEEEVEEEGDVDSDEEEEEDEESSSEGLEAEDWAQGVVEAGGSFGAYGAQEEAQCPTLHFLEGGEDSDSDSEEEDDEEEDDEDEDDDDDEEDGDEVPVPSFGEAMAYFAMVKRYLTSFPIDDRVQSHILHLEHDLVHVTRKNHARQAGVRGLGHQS

[14] = biological target: T8, Sjogren's syndrome antigen (SSB) (UniProt P05455 1-408); test: AtheNA autoantigen assay [panel H]
T8 sequence (looked up): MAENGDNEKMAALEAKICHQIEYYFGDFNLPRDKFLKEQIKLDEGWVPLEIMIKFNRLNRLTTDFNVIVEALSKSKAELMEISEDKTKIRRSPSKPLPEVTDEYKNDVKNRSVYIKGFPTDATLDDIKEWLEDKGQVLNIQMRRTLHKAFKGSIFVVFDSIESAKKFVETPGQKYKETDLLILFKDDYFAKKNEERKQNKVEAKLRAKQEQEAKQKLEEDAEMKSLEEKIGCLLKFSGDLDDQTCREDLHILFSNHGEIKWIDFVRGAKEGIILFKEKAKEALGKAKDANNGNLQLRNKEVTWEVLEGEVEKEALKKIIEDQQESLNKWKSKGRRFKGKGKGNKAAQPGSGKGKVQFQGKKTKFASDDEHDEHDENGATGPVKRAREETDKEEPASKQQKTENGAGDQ

[15] = biological target: T9, Jo-1 antigen (UniProt P12081 2-509); test: AtheNA autoantigen assay [panel H]
T9 sequence (looked up): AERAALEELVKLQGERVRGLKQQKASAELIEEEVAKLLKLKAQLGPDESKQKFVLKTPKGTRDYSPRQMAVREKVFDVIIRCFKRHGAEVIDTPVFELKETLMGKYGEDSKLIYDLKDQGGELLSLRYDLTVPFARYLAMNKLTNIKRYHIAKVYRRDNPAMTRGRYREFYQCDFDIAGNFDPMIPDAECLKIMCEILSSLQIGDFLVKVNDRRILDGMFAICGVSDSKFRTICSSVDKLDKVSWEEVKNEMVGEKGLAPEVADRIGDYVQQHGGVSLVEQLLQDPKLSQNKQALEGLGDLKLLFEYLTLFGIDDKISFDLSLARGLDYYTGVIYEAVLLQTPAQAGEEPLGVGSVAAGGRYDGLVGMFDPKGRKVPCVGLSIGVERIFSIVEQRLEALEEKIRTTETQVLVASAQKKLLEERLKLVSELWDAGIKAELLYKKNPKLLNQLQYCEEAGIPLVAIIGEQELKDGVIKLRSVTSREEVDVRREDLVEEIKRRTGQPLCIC

[16] = biological target: T1, soluble HLA-E-VL9 complex (HLA-E*01:03 …); test: SPR, antibody on CM5 chip, soluble HLA-E-VL9 flowed over, 1:1 model; human IgG1 backbone 3H4

B1: CA123 (human antibody on a human IgG1 backbone) (antibody, V domains shown)
VH: EVQLVESGGGLVQPGGSLRLSCAASGFTFSSYWMHWVRQAPGKGLVWVSRINSDGSSTSYADSVKGRFTISRDNAKNTLYLQMNSLRAEDTAVYYCARDQGSTSCYYCYYGMDVWGQGTTVTVSS
VL: not shown
notes: also called CA123 IgG
koff [1]: 0.794 s⁻¹
kon [1]: 211000 M⁻¹ s⁻¹
Kd [2]: 3.8 µM
binding result [3]: no binding (tested: 2 µg/ml)
binding result [4]: no binding (tested: 2 µg/ml)

B2: 3H4 (mouse IgM monoclonal antibody) (antibody, V domains shown)
VH: EVQLQESGPELVKPGASVKIPCKASGYTFTDYNMDWVKQSHGKSLEWIGDINPNNGGTIYNQKFKGKATLTVDKSSSTAYMELRSLTSEDTAVYYCARPDYYGSSYGWYFDVWGTGTTVTVSS
VL: DIVITQSPSSMYASLGERVTITCKASQDINSYLSWFQQKPGKSPKTLIYRANRLVDGVPSRFSGSGSGQDYSLTISSLEYEDMGIYYCLQYDEFPLTFGAGTKLELK
notes: also called mAb 3H4; IgM 3H4
binding result [5]: no binding
binding result [6]: no binding
binding result [7]: no binding
binding result [8]: binds
binding result [9]: binds
binding result [10]: binds
Kd [11]: 8.1 µM

B3: 3H4 on a human IgG1 backbone (3H4 Gwt) (antibody, V domains shown)
VH: B2 VH
VL: B2 VL
notes: also called 3H4 IgG; wild-type 3H4 IgG
binding result [12]: no binding
binding result [13]: no binding
binding result [14]: no binding
binding result [15]: no binding
Kd [16]: 49.8 µM
